The values that follow are results of earlier work, collected in article PMC5811392.

In data set [1] the target is p53 DBD (Homo sapiens) (UniProt P04637).
The target in data set [2] is p53 (Homo sapiens) (UniProt P04637).
p53 (Homo sapiens), sequence (P04637 whole entry): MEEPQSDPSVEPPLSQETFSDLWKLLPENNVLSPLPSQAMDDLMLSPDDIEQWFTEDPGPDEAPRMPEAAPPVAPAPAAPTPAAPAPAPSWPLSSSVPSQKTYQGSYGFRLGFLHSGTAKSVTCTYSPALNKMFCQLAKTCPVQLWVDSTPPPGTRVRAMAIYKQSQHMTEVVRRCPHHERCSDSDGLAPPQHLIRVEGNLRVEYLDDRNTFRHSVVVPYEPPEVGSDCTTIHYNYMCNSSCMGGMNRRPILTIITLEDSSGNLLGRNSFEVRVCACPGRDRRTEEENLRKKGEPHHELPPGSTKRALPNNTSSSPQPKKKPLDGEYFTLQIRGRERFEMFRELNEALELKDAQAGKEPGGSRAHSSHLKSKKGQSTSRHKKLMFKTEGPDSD

BCL-xL, sequence (Q07817 whole entry): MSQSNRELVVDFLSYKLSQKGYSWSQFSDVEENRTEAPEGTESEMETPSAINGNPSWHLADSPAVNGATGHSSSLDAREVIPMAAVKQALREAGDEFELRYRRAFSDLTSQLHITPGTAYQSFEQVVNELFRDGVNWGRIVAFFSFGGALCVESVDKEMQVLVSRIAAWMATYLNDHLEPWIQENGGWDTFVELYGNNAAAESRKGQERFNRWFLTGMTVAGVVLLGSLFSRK
p53 DBD (Homo sapiens), sequence (P04637 94-312): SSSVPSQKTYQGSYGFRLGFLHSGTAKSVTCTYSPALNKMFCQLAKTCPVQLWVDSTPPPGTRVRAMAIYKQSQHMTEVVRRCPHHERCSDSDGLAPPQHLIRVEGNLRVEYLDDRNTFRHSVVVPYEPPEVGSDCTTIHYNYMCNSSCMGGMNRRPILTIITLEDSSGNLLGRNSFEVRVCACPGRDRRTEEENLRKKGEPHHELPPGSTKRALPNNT

In general, Kd refers to the free concentration of one partner at which half of the binding sites on the other are occupied at equilibrium, for simple one-to-one binding. For BCL-xL (from UniProt Q07817), the Kd was 17 µM in data set [1] and 1 µM in data set [2].
